# T1: human lymphotoxin (TNFβ) (human) (UniProt P01374)
# T1 sequence (looked up): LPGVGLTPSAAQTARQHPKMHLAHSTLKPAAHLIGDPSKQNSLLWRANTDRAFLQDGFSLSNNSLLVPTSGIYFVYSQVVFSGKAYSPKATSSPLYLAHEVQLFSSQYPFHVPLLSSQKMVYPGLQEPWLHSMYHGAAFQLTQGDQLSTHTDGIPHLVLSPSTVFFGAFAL
# B1: chimeric mouse/human IgG1 anti-platelet mAb (7E3) (antibody, INN chains, looked up, V domains shown)
# VH: EVQLQQSGTVLARPGASVKMSCEASGYTFTNYWMHWVKQRPGQGLEWIGAIYPGNSDTSYIQKFKGKAKLTAVTSTTSVYMELSSLTNEDSAVYYCTLYDGYYVFAYWGQGTLVTVSA
# VL: EIVLTQSPVTLSVTPGDSVSLSCRASRDISNNLHWFQQTSHESPRLLIKYASQSMSGIPSRFSGSGSGTDFTLSINSVETEDFGMYFCQQTNSWPYTFGGGTKLEIK
# modifications: chimeric IgG1
# Assays:
# [1] = target: T1, human lymphotoxin (TNFβ) (human); assay: cell-based or functional assay
# [2] = target: human tumor necrosis factor-alpha (hTNFα) (human) (UniProt P01375); assay: cell-based or functional assay
# Chain of human tumor necrosis factor-alpha (hTNFα) (human) (P01375 77-233): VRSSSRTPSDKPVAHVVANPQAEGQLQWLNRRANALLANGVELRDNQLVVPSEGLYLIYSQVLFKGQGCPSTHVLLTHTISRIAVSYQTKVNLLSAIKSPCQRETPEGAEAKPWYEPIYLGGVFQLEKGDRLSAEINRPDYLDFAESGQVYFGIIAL
Molecule,"amount needed for the same inhibition of human TNFβ, against p75P-sf2 [1] [fold]","IL-6 secreted by FS-4 fibroblasts, 0.3 ng/ml rhTNF with 4 µg/ml antibody (no antibody: 1.36) [2] [ng/mL]","IL-6 secreted by FS-4 fibroblasts, 1.5 ng/ml rhTNF with 4 µg/ml antibody (no antibody: 2.00) [2] [ng/mL]","IL-6 secreted by FS-4 fibroblasts, 7.5 ng/ml rhTNF with 4 µg/ml antibody (no antibody: 2.56) [2] [ng/mL]"
p55-sf2 (p55 TNF receptor/IgG1 heavy chain single fusion with truncated light chain JCK) (from UniProt P19438 3-159) (Fc fusion),3,,,
p75-sf2 (complete extracellular domain of p75 fused to the IgG1 heavy chain) (from UniProt P20333 23-257) (Fc fusion),3,,,
B1,,1.6,1.96,2.16
